Assay results taken from article PMC7439480, “Phosphorylation-Dependent Assembly of a 14-3-3 Mediated Signaling Complex during Red Blood Cell Invasion by Plasmodium falciparum Merozoites” (mBio, 2020).
Non-standard residues stand in square brackets, D forms with d. No end group written: not given here. pS = N[C@@H](COP(=O)(O)O)C(=O)O

T1: recombinant glutathione S-transferase (GST)-tagged Pf14-3-3I protein (P. falciparum, UniProt C0H4V6 1-262)
T1 construct: 14-3-3 protein I, P. falciparum, PF3D7_0818200; also called Pf14-3-3I-GST; recombinant Pf14-3-3I; source: recombinant
T1 sequence: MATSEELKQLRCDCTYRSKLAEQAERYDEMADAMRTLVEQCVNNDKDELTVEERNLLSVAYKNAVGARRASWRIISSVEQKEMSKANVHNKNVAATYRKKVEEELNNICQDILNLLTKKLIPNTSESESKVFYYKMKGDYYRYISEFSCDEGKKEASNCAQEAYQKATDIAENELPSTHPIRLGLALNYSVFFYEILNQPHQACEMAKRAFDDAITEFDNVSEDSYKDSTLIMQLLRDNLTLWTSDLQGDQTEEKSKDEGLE

B1: 14-3-3 binding peptide RA (RLYHpSLPA) (peptide)
peptide: RLYH[pS]LPA
notes: Coupled to agarose beads (Pierce co-IP kit) for the pull-down; also called phosphopeptide RA; source: synthetic peptide
B2: 14-3-3 binding peptide AA (ARSHpSYPA) (peptide)
peptide: ARSH[pS]YPA
notes: Coupled to agarose beads (Pierce co-IP kit) for the pull-down; also called phosphopeptide AA; source: synthetic peptide

Target: T1, recombinant glutathione S-transferase …
Experiment: pull-down; peptides coupled to agarose beads (Pierce co-IP kit) incubated with GST-tagged Pf14-3-3I; eluates blotted with anti-Pf14-3-3I mouse sera; noncoated beads as control
Details: both partners purified

Binder	binding result
B1	binds
B2	binds
